Assays:
[1] = system: carrageenan-induced paw edema; assay: Carrageenan-induced paw edema; assay type: in vivo, Sprague Dawley rats
Protocol: Based on the standard model (Winter et al., Proc Soc Exp Biol Med 111:544, 1962; Hansra et al., Inflammation 24:141, 2000), the experiment was performed as follows. Male Sprague Dawley rats were randomized by weight into three treatment groups. The animals were administered MP8 or control solution subcutaneously, or indomethacin by mouth. One hour later, they were injected in the left hind paw with a sterile solution of 1% carrageenan suspension in water, in order to induce swelling. Three hours later, the volume of the injected paw was measured by water displacement in a water plethysmograph (mean±SEM; 10 animals per group).
Male Sprague Dawley rats were administered with test protein or indomethacin (anti-inflammatory control), and then challenged in a hind footpad with carrageenan, as in Example 12.

p55 or p75 TNF receptor = settings: cited from earlier work
p55 TNF Receptor = p55 TNF Receptor (Homo sapiens, UniProt P19438); assay: FRET peptide cleavage assay, p55 TNF receptor peptide; assay type: biochemical; settings: Zn++ 0.1 mM, Ca++ 2 mM, corrected for EDTA, 37° C. for 3 hours
Protocol: Cytokine-specific proteolytic activity can rapidly be quantified by Fluorescence Resonance Energy Transfer (FRET). Peptides having the amino acid sequence of the TNF Receptor or other protein substrates are labeled at opposite ends with a fluorescence emitter and a fluorescence quencher. The peptide is then incubated with a source of receptor cleaving enzyme, and fluorescence is measured. The quenching group normally absorbs fluorescence from the emitter. But enzymatic cleavage of the peptide decouples the quenching group, and fluorescence emission increases proportionally.
The peptides used as substrates in the cleavage assay were taken from the known sites of proteolytic cleavage of the whole protein. The peptides were labeled with the fluorescence emitter (Edans-●) at the C-terminal, and the quenching hapten (Dabcyl-▴) at the N-terminal.
The assay is conducted in the presence of the metal cations Zn^++ (0.1 mM) and Ca^++ (2 mM), and corrected for cleavage in the presence of EDTA (20 mM). Dependence on divalent cations confirms that the enzyme activity measured in this assay is a metalloprotease. The assay mixture also contains a cocktail of protease inhibitors and bovine albumin. Cleavage is measured as the net change in fluorescence emission after incubating the enzyme with the peptide at 37° C. for 3 hours. […]

Isoelectric point = assay type: physicochemical
TNF receptor = assay: Cell surface cleavage assay, release of TNF receptor isoforms by enzyme immunoassay; assay type: cell-based; settings: 25 μg protein with 2.5×10^6 cells; (treated—untreated)/untreated
Protocol: To determine cell surface cleavage activity, 25 μg of MP8-FL2 was combined with 2.5×10^6 cells. Release of both TNF receptor isoforms was determined by enzyme immunoassay as (treated—untreated)/untreated.

LPS-induced septic shock = assay: LPS/galactosamine-induced septic shock model; assay type: in vivo, Balb/c mice; settings: up to 40 μg one hour before 10 μg LPS and 15 mg galactosamine
Protocol: A classic model for determining effectiveness of agents against cytokine-mediated inflammation is endotoxin-induced septic shock (Morrison et al., J Infect Dis 162:1063, 1990).
The septic shock experiment was conducted as follows. Female Balb/c mice were randomized by weight into 6 treatment groups. Sepsis was induced by injecting 10 μg LPS and 7 mg galactosamine in the lateral or dorsal caudal vein. Some of the groups were pretreated with 50,000 FU of MP8 simultaneously or 3 hours in advance of the LPS challenge to determine whether there was a protective effect.
FIG. 8 is a Kaplan-Meier survival curve, showing the mortality in each of the treatment groups in the study. Without any treatment or challenge, there is no effect on the animals, and the line stays at the top. Life-compromising challenge causes the line to fall to the bottom of the graph in a step-wise fashion as each animal succumbs. Treatment that is protective against the challenge maintains the line near the top of the graph.
The enzyme was administered in a volume of 110 μL at one hour before the LPS challenge.
Stability of the clinical effect of MP8 was determined in the septic shock model. Female Balb/c mice were injected with 300,000 FU of MP8 that had been stored for 4 days at −70° C., or 7 days at 4° C. One hour later, the mice were challenged with 10 μg LPS and 7 mg galactosamine as before.
In this example, durability of receptor cleavage in vivo was determined by treating animals subcutaneously up to three days in advance with 300,000 FU of MP8. The mice were then challenged with […] LPS and 7 mg galactosamine in the usual fashion.
Sepsis was induced in Balb/c mice by administering 10 μg LPS and […] galactosamine, as in Example 3. Randomized groups were pretreated with up to 40 μg MP8-FL2 one hours in advance of the LPS challenge.

## COc1ccc2c(c1)c(CC(=O)O)c(C)n2C(=O)c1ccc(Cl)cc1 [indomethacin, reference compound]
[1]; given one hour before carrageenan, paw volume three hours later, MP8 subcutaneously, indomethacin by mouth
  inhibition of edema formation: 49%

B1: MDC-9: metalloprotease (protein, UniProt Q13443 29-819, looked up)
Disintegrin and …: AARPGFQQTSHLSSYEIITPWRLTRERREAPRPYSKQVSYVIQAEGKEHIIHLERNKDLLPEDFVVYTYNKEGTLITDHPNIQNHCHYRGYVEGVHNSSIALSDCFGLRGLLHLENASYGIEPLQNSSHFEHIIYRMDDVYKEPLKCGVSNKDIEKETAKDEEEEPPSMTQLLRRRRAVLPQTRYVELFIVVDKERYDMMGRNQTAVREEMILLANYLDSMYIMLNIRIVLVGLEIWTNGNLINIVGGAGDVLGNFVQWREKFLITRRRHDSAQLVLKKGFGGTAGMAFVGTVCSRSHAGGINVFGQITVETFASIVAHELGHNLGMNHDDGRDCSCGAKSCIMNSGASGSRNFSSCSAEDFEKLTLNKGGNCLLNIPKPDEAYSAPSCGNKLVDAGEECDCGTPKECELDPCCEGSTCKLKSFAECAYGDCCKDCRFLPGGTLCRGKTSECDVPEYCNGSSQFCQPDVFIQNGYPCQNNKAYCYNGMCQYYDAQCQVIFGSKAKAAPKDCFIEVNSKGDRFGNCGFSGNEYKKCATGNALCGKLQCENVQEIPVFGIVPAIIQTPSRGTKCWGVDFQLGSDVPDPGMVNEGTKCGAGKICRNFQCVDASVLNYDCDVQKKCHGHGVCNSNKNCHCENGWAPPNCETKGYGGSVDSGPTYNEMNTALRDGLLVFFFLIVPLIVCAIFIFIKRDQLWRSYFRKKRSQTYESDGKNQANPSRQPGSVPRHVSPVTPPREVPIYANRFAVPTYAAKQPQQFPSRPPPPQPKVSSQGNLIPARPAPAPPLYSSLT
p55 or p75 TNF receptor
  cleavage of p55 or p75 TNF receptor: do not efficiently cleave

B2: MP8-FL2: full length MP8 (SEQ. ID NO:53) without HIS tag, produced from E. coli strain MP820 (protein, listed as Homo sapiens)
chain: MCVHPGACLPHVGVSWAEFPGHFSVELSSLLVRNVNYEIPSLKKQIAKCQQLQQEYSRKEEECQAGAAEMREQFYHSCKQYGITGENVRGELLALVKDLPSQLAEIGAAAQQSLGEAIDVYQASVGFVCESPTEQVLPMLRFVQKRGNSTVYEWRTGTEPSVVERPHLEELPEQVAEDAIDWGDFGVEAVSEGTDSGISAEAAGIDWGIFPESDSKDPGGDGIDWGDDAVALQITVLEAGTQAPEGVARGPDALTLLEYTETRNQFLDELMELEIFLAQRAVELSEEADVLSVSQFQLAPAILQGQTKEKMVTMVSVLEDLIGKLTSLQLQHLFMILASPRYVDRVTEFLQQKLKQSQLLALKKELMVQKQQEALEEQAALEPKLDLLLEKTKELQKLIEADISKRYSGRPVNLMGTSL
p55 TNF Receptor
  cleavage of p55 TNF receptor (R1) peptide: caused cleavage
Isoelectric point
  Isoelectric Point - By isoelectric focusing: 5.6
TNF receptor
  cleavage and release of TNF receptor from the cell surface: cause cleavage and release of TNF receptor, with preference for the R1 (p55) isoform
[1]; challenge in hind footpad with carrageenan as in Example 12
  paw swelling: significantly prevented paw swelling
LPS-induced septic shock
  protection against septic shock: protected the mice in a dose-dependent fashion

B3: ADAM-10: metalloprotease (protein, UniProt O14672 214-748, looked up)
Disintegrin and …: TTSAEKNTCQLYIQTDHLFFKYYGTREAVIAQISSHVKAIDTIYQTTDFSGIRNISFMVKRIRINTTADEKDPTNPFRFPNIGVEKFLELNSEQNHDDYCLAYVFTDRDFDDGVLGLAWVGAPSGSSGGICEKSKLYSDGKKKSLNTGIITVQNYGSHVPPKVSHITFAHEVGHNFGSPHDSGTECTPGESKNLGQKENGNYIMYARATSGDKLNNNKFSLCSIRNISQVLEKKRNNCFVESGQPICGNGMVEQGEECDCGYSDQCKDECCFDANQPEGRKCKLKPGKQCSPSQGPCCTAQCAFKSKSEKCRDDSDCAREGICNGFTALCPASDPKPNFTDCNRHTQVCINGQCAGSICEKYGLEECTCASSDGKDDKELCHVCCMKKMDPSTCASTGSVQWSRHFSGRTITLQPGSPCNDFRGYCDVFMRCRLVDADGPLARLKKAIFSPELYENIAEWIVAHWWAVLLMGIALIMLMAGFIKICSVHTPSSNPKLPPPKPLPGTLKRRRPPQPIQQPQRQRPRESYQMGHMRR
p55 or p75 TNF receptor
  cleavage of p55 or p75 TNF receptor: do not efficiently cleave

Source: patent publication US7807387B2, “Biological agent that causes IL-6 receptor release” (Meyer Pharmaceuticals LLC, priority 2003, dated 2010)
